# Measured values published in PMC4043945, “Biochemical and Molecular Characterization of Barley Plastidial ADP-Glucose Transporter (HvBT1)” (PLoS ONE, 2014).
# Tests used:
# [1] = substrate: Nc1ncnc2c1ncn2[C@@H]1O[C@H](COP(=O)(O)OP(=O)(O)O)[C@@H](O)[C@H]1O; experiment: radiolabelled uptake (Michaelis-Menten) in intact E. coli cells expressing HvBT1; also counter-exchange and reduction of ADP-Glc uptake; assay type: cell-based, Hordeum vulgare; conditions: counter-exchange substrate with ADP-glucose
# [2] = substrate: Nc1ncnc2c1ncn2[C@@H]1O[C@H](COP(=O)(O)OP(=O)(O)O[C@H]2O[C@H](CO)[C@@H](O)[C@H](O)[C@H]2O)[C@@H](O)[C@H]1O; experiment: radiolabelled uptake (Michaelis-Menten) in intact E. coli cells expressing HvBT1; empty-plasmid control subtracted; assay type: cell-based, Hordeum vulgare
protein,measurement,setting,value
"HvBT1 (barley plastidial ADP-glucose transporter) (Hordeum vulgare subsp. vulgare) (protein, codon-optimized ORF in pET16b with N-terminal His-tag, expressed in E. coli C43 (DE3)) MAAAMAATTMVTKNNGGSLAMDKKNWFFRPAPEVAFSWSSQPESRSLEFPRRALFASVGLSLSHDGKARPADDVAHQLAAAGDAGVQQAQKAKKAKKQQLGLRKVRVKIGNPHLRRLVSGAIAGAVSRTFVAPLETIRTHLMVGSSGADSMGGVFRWIMRTEGWPGLFRGNAVNVLRVAPSKAIEHFTYDTAKKYLTPEAGEPAKVPIPTPLVAGALAGVASTLCTYPMELVKTRLTIEKDVYDNLLHAFVKIVRDEGPGELYRGLAPSLIGVVPYAAANFYAYETLRGAYRRASGKEEVGNVPTLLIGSAAGAIASTATFPLEVARKQMQVGAVGGRQVYKNVLHAMYCILNKEGAAGLYRGLGPSCIKLMPAAGISFMCYEACKKILVDDKQDGEPQDQEETETGHTQGQAAPKSPNANGDRP",Km,[1],334.7 µM
same,Km,[2],614.5 µM
